Test results from PMC10689933 (Molecular Therapy Oncolytics, 2023).

Key:
[1] = molecular target: T1, CD24, membrane-associated, on human cells (Homo sapiens, UniProt P25063); assay: flow cytometry on cells
T1 chain: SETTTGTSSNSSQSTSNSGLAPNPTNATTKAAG

His-tagged CD24 antigen = molecular target: T2, His-tagged CD24 antigen (Homo sapiens (species assumed), UniProt P25063); assay: ELISA
T2 chain: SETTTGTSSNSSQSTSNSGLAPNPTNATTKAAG

Binder | binding result [1] | binding result (His-tagged CD24 antigen)
PPAB001, bispecific antibody fusion protein against CD47 and CD24 (bispecific antibody, V domains shown) VH: VKLVESGGGLVQPGGSLKLSCAASGDSVTSKSMSWVRQAPSGGLQWIGRTYPDNGDSSYTPSVRSRFIISRDNAKNTLYLQMRKVRSEDTGFYYCARQGDYWGQGTTLTVSS VL: DVVMTQTPLTLSLSPGQPASISCKSSQSGSIGRAKTYLNWYQQRPGQAPKLLIYDASKLDSGVPDRFTGSGSGTDFTLKISRVEAEDLGVYYCWQGTHFPYTFGGGTKLEIK | binds | binds
humanized anti-CD24 antibody with common light chain (antibody, V domains shown) VH: VKLVESGGGLVQPGGSLKLSCAASGDSVTSKSMSWVRQAPSGGLQWIGRTYPDNGDSSYTPSVRSRFIISRDNAKNTLYLQMRKVRSEDTGFYYCARQGDYWGQGTTLTVSS VL: DVVMTQTPLTLSLSPGQPASISCKSSQSGSIGRAKTYLNWYQQRPGQAPKLLIYDASKLDSGVPDRFTGSGSGTDFTLKISRVEAEDLGVYYCWQGTHFPYTFGGGTKLEIK | binds | 
